One block for each binder: values may come before it.
Tests used:
[1] = target: T1, LIF receptor and gp130 expressed by parental M1 cells (mouse; murine, UniProt P42703 44-1092; Q00560 23-917); experiment: binding of 125I-labelled human IL-11 to cells
T1 construct: whole, on cells; Untransfected cells

[2] = target: T2, Nr1 (murine IL-11 receptor α-chain) expressed in Ba/F3 cells (murine, UniProt Q64385 24-432); experiment: binding of 125I-LIF to transfected Ba/F3 cells
T2 construct: also called Ba/F3 cells expressing Nr1; Ba/F3 Nr1
T2 sequence: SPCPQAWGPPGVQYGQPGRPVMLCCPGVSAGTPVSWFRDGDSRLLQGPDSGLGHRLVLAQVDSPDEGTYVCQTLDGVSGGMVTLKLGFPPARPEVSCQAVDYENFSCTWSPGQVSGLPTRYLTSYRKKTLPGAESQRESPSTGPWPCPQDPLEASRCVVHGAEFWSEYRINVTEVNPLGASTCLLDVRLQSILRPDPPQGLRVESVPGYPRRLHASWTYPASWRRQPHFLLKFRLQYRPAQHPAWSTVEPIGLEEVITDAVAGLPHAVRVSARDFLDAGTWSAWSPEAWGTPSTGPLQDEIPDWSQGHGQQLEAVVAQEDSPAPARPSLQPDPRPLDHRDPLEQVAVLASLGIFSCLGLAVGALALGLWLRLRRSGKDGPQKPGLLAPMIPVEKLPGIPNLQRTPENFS

[3] = target: T3, Nr1, gp130 and the LIF receptor co-expressed in Ba/F3 cells (murine; mouse; human, UniProt Q00560 23-917; P42702 45-1097); experiment: competition with 125I-IL-11 on Ba/F3 cells expressing Nr1, gp130 and the LIF receptor
T3 construct: whole, on cells; also called Ba/F3 Nr1/gp130/LIF receptor
Experimental: (§1) After 18 hours incubation on ice, bound and free IL-11 were separated by centrifugation through foetal calf serum. Bound and free ¹²⁵I-IL-11 were quantitated in a γ-counter and the amount of binding was expressed as a percentage of that observed in the absence of competitor.

[4] = target: T1, LIF receptor and gp130 expressed by …; experiment: binding of 125I-LIF to parental M1 cells
[5] = target: T1, LIF receptor and gp130 expressed by …; experiment: binding of 125I-OSM to parental M1 cells
[6] = target: T2, Nr1 (murine IL-11 receptor α-chain) …; experiment: binding of 125I-OSM to transfected Ba/F3 cells
[7] = target: T4, Nr1 and gp130 co-expressed in Ba/F3 cells (murine; mouse, UniProt Q00560 23-917); experiment: competition with 125I-IL-11 on Ba/F3 cells expressing Nr1 and gp130; competitor of labelled IL-11
T4 construct: whole, on cells; also called Ba/F3 Nr1/gp130; Ba/F3 cells expressing the murine IL-11rα and murine gp130
T4 sequence 1: T2 sequence
T4 sequence 2: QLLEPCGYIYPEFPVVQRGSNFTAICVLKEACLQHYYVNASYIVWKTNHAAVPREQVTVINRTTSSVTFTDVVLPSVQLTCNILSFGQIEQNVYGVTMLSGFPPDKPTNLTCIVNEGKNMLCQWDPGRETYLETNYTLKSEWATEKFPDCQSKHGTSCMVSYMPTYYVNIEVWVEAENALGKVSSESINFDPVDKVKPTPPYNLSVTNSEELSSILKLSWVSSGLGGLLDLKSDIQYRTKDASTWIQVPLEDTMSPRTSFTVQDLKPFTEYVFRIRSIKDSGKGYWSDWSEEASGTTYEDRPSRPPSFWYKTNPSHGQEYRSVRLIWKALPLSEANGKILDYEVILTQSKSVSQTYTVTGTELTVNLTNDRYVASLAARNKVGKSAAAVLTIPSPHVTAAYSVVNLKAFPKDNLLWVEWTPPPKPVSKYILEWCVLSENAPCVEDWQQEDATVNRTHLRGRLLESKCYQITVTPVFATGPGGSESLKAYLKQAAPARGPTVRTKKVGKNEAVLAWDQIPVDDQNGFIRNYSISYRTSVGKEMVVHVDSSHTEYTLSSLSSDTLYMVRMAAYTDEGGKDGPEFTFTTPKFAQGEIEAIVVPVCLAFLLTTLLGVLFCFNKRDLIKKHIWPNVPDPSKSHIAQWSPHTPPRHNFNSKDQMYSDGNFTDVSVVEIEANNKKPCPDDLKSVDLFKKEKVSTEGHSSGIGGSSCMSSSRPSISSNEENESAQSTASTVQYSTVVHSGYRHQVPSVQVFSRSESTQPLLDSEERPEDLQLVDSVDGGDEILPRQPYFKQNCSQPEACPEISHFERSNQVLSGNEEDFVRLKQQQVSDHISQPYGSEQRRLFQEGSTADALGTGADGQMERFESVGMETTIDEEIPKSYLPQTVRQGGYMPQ
Experimental: as §1

[8] = target: T2, Nr1 (murine IL-11 receptor α-chain) …; experiment: Scatchard analysis of 125I-IL-11 saturation binding to Ba/F3 cells expressing Nr1
Source text: FIGS. 4A-4D are graphical representations of scatchard analyses of saturation isotherms of IL-11 binding to various cell lines; (4A) parental Ba/F3 cells (●), Ba/F3 cells expressing Nr1 (◯), Ba/F3 cells expressing Nr1 and the LIF receptor (▪), (4B) Ba/F3 cells expressing the LIF receptor and gp130 (▪), Ba/F3 cells expressing Nr1 and gp130 (●), Ba/F3 cells expressing the Nr1, LIF receptor and gp130 (◯), (4C) parental M1 cells (▪), M1 cells expressing Nr1 (◯), and (4D) 3T3-L1 cells (●) were incubated with various concentrations of labelled IL-11 in the presence of absence of a 10-100-fold excess of unlabelled IL-11. After 18 hours incubation on ice, bound and free IL-11 were separated by centrifugation through foetal calf serum. Bound and free ¹²⁵I-IL-11 was quantitated in a γ-counter and the data was depicted as a Scatchard transformation. In each case data were normalised for cell number and shown as binding to 10⁶ cells.

T1 sequence (P42703 44-1092, one chain of several): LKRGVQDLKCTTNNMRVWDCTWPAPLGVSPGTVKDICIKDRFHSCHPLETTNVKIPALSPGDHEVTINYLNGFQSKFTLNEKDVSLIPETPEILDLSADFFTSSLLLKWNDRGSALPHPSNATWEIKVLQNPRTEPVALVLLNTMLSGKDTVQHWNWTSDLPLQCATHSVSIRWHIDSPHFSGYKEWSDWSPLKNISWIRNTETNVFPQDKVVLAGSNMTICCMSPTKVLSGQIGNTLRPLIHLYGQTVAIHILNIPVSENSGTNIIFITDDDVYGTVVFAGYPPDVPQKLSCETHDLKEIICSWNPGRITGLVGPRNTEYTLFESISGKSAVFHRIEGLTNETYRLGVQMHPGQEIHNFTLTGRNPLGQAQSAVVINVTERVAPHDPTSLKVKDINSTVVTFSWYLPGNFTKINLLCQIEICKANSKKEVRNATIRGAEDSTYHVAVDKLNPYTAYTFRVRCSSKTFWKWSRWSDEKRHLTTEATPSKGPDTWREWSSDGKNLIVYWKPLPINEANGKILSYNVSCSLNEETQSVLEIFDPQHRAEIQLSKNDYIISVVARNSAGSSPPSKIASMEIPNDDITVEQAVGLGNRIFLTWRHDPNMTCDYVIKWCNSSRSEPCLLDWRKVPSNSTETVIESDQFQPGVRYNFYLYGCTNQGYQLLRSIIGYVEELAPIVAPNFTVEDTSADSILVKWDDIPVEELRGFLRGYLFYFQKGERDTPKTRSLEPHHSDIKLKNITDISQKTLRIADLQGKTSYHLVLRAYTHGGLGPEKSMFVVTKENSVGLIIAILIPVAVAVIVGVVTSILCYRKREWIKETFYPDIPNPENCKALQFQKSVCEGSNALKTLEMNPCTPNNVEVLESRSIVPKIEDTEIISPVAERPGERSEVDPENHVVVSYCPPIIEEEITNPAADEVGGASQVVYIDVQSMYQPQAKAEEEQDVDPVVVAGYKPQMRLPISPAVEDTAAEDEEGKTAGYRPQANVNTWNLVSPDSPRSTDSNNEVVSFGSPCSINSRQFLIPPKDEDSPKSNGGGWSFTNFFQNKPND
T3 sequence (P42702 45-1097, one chain of several): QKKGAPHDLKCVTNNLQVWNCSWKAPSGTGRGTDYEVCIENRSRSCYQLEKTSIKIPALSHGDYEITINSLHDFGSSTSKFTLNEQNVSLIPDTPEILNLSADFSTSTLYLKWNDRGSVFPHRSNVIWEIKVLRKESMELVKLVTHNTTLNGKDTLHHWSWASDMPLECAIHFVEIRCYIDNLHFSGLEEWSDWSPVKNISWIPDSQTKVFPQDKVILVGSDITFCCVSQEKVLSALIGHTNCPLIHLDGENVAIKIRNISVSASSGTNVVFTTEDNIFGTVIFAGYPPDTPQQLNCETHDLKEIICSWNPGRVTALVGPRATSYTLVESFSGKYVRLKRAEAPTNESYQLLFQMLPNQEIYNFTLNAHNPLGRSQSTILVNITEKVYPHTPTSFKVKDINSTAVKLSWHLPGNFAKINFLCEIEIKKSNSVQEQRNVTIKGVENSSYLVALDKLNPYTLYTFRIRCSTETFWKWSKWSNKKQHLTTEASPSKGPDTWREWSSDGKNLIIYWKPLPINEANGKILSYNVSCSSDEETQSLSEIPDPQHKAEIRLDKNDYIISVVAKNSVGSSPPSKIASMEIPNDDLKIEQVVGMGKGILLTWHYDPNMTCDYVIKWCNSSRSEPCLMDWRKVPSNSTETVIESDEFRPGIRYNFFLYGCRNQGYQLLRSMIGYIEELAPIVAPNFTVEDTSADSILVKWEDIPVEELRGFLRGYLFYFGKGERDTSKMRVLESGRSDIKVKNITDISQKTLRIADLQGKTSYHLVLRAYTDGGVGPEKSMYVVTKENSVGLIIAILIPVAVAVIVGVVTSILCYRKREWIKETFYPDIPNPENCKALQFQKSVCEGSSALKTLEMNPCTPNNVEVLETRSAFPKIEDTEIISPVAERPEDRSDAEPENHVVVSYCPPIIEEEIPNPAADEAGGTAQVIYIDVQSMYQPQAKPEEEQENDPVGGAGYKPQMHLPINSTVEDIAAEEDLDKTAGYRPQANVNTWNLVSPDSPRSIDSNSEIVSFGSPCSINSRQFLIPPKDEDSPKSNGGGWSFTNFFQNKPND

binding result [1]: no binding
B1: N-terminal flag human IL-11 (expressed in COS-M6 cells, used in ligand binding studies) (ligand)
chain: DYKDDDDKPGPPPGPPRVSPDPRAELDSTVLLTRSLLADTRQLAAQLRDKFPADGDHNLDSLPTLAMSAGALGALQLPGVLTRLRADLLSYLRHVQWLRRAGGSSLKTLEPELGTLQARLDRLLRRLQLLMSRLALPQPPPDPPAPPLAPPSSAWGGIRAAHAILGGLHLTLDWAVRGLLLLKTRL
modifications: radio-iodinated (125I) with Bolton-Hunter reagent
notes: mature; also called radio-labelled human IL-11

binding result [2]: no binding | binding result [3]: binds | binding result [4]: binds
B2: human LIF (produced using the pGEX system) (ligand)
chain: not shown
modifications: 125I-labelled where used as labelled ligand

binding result [3]: binds | binding result [5]: binds | binding result [6]: no binding | binding result [7]: binds
B3: human OSM (produced using the pGEX system) (ligand, UniProt P13725 26-221, looked up)
chain: AAIGSCSKEYRVLLGQLQKQTDLMQDTSRLLDPYIRIQGLDVPKLREHCRERPGAFPSEETLRGLGRRGFLQTLNATLGCVLHRLADLEQRLPKAQDLERSGLNIEDLEKLQMARPNILGLRNNIYCMAQLLDNSDTAEPTKAGRGASQPPTPTPASDAFQRKLEGCRFLHGYHRFMHSVGRVFSKWGESPNRSRR
modifications: 125I-labelled where used as labelled ligand

Kd [8]: ~0.01 nM
B4: IL-11 (purchased from PeproTech; used in Examples 7, 8, 12 and 13) (ligand)
chain: PGPPPGPPRVSPDPRAELDSTVLLTRSLLADTRQLAAQLRDKFPADGDHNLDSLPTLAMSAGALGALQLPGVLTRLRADLLSYLRHVQWLRRAGGSSLKTLEPELGTLQARLDRLLRRLQLLMSRLALPQPPPDPPAPPLAPPSSAWGGIRAAHAILGGLHLTLDWAVRGLLLLKTRL
modifications: The tracer form (125I-IL-11) was radio-iodinated with monoiodinated Bolton-Hunter reagent on amino groups. The positions are not stated and the letters are unchanged.
notes: Species ambiguous: 'Murine' may apply to IL-3 only; also called labelled IL-11

— US20060051842A1 (AMRAD OPERATIONS, published 2006)
